In test [1] the test system is human HCT116 tumor cells (CRC). Put plainly: HCT116 colorectal xenograft tumor growth, REGN421 with 5-FU (Example 5). As to conditions: REGN421 2 mg/kg sc (6 mg/kg total dose). It counts as in vivo, mouse. On the procedure: The effect of anti-Dll4 Ab (REGN421) in combination with 5-FU on tumor growth was evaluated on tumors implanted in humanized Dll4 SCID mice. Each mouse was implanted subcutaneously (sc) with 5×10^6 human HCT116 tumor cells (CRC). After the tumors were established in the mice (tumor size of ˜150 mm^3, 22 days after implantation), tumors were measured and randomized. The mice were then treated with hFc, REGN421, 5-FU or combination of REGN421 and 5-FU. A total of 30 mice were divided into 6 groups (n=5 per cohort). The first group was treated sc with hFc at 2 mg/kg; the second group was treated sc with REGN421 at 2 mg/kg; the third and fourth groups were treated ip with 5-FU at 15 and 25 mg/kg, respectively; the fifth group was treated sc with REGN421 at 2 mg/kg and ip with 5-FU at 15 mg/kg; and the sixth group was treated sc with REGN421 at 2 mg/kg and ip with 5-FU at 25 mg/kg. REGN421 was administered every 3-4 days starting on day 22 and mice received three doses total. 5-FU was administered every 3-4 days starting on day 22 and mice received three doses total.
To assess the effects of REGN421 and 5-FU as single agents or in combination, the changes in tumor size (volume) were measured, beginning three days before the initial REGN421 treatment, and then on the day of each agent treatment (days 22, 26, 29) and thereafter every 3-4 days until tumors reach ˜600 mm^3 in size. In vivo tumor size is calculated using the formula (length×width^2)/2 (FIG. 3 and Table 5).

The subject of test [2] is human A549 tumor cells (non-small cell lung cancer). The test can be described thus: A549 NSCLC xenograft tumor growth, REGN421 with cisplatin (Example 2). As to conditions: REGN421 2 mg/kg sc (6 mg/kg total dose). The format is in vivo, mouse. On the procedure:
The effect of REGN421 in combination with cisplatin on tumor growth was evaluated on tumors implanted in humanized Dll4 SCID mice, as described above. Each mouse was implanted subcutaneously (sc) with 5×10^6 human A549 tumor cells (non-small cell lung cancer or “NSCLC”). After the tumors were established in the mice (tumor size of 100-150 mm^3, approximately 29 days after implantation), tumors were measured, randomized and treated with hFc, REGN421, cisplatin or combination of REGN421 and cisplatin. A total of 36 mice were divided into 6 groups (n=6 per cohort). The first group was treated sc with hFc at 2 mg/kg; the second group was treated sc with REGN421 at 2 mg/kg; the third and fourth groups were treated ip with cisplatin at 2.5 and 4.5 mg/kg, respectively; the fifth group was treated sc with REGN421 at 2 mg/kg and ip with cisplatin at 2.5 mg/kg; and the sixth group was treated sc with REGN421 at 2 mg/kg and ip with cisplatin at 4.5 mg/kg. REGN421 was administered every 3-4 days starting on day 29 and mice received three doses total. Cisplatin was administered every 24 hours starting on day 29 and mice received two doses total.
To assess the effects of REGN421 and cisplatin as single agents or in combination we measured tumor size (volume), beginning three days before the initial REGN421 treatment, on the day of each agent treatment (days 29, 30, 33, 36) and thereafter every 3-4 days until tumors reached ˜600 mm^3 in size. In vivo tumor size was calculated using the formula (length×width^2)/2.

B1: REGN421: anti-hDll4 antibody comprising HCVR/LCVR combination of SEQ ID NO:116/118 (antibody, V domains shown)
VH: QVQLVESGGGVVQPGRSLRLSCAASGFTFSSYGMHWVRQAPGKGLEWVSFLWYDGTNKNYVESVKGRFTISRDNSKNMLYLEMNSLRAEDTAVYYCARDHDFRSGYEGWFDPWGQGTLVTVSS
VL: EIVLTQSPATLSLSPGERATLSCRASQSVSSYLAWYQQKPGQAPRLLIYDASNRATGIPARFSGSGSGTDFTLTISSLEPEDFAVYYCQHRSNWPPTFGGGTKVEIK
For the molecule B1, the TGD in test [1] is on record as 6 days; in test [2] it was 8 days.

Values taken from patent US8840886B2, “Method of treating cancer with DLL4 antagonist and chemotherapeutic agent” (Regeneron Pharmaceuticals, Inc., priority 2009, dated 2014).
